One assay deals with human GIPR (human) (UniProt P48546).
In assay [1] the target is Xenopus GCRP receptor (Xenopus).
For assay [2], the target named is chicken GCRP receptor (chicken).

Chain of Human GCG (peptide) (peptide): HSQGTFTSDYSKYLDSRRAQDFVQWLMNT
Chain of Human GLP1 (peptide) (peptide): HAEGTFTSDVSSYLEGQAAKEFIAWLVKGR
Chain of human GIPR (human) (P48546 22-466): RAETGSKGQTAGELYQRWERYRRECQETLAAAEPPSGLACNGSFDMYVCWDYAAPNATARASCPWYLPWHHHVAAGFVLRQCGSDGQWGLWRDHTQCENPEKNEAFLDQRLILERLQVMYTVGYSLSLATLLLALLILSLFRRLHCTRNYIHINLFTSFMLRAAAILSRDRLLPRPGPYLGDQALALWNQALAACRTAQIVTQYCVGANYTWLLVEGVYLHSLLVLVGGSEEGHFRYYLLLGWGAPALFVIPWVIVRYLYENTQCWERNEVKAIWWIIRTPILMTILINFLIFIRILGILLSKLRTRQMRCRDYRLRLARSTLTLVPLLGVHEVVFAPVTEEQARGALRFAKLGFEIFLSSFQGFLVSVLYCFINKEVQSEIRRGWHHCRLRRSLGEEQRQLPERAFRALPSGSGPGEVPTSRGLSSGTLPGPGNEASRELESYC

With Exendin-4 (peptide), the CRE-luc reporter, HEK293T cells with the receptor: EC50 in the assay with human GIPR (human) was found to be 100 nM.
In assay [1], Human GLP1 (peptide) returned a CRE-luc reporter, HEK293T cells with the receptor: EC50 of 391 nM and a CRE-luc reporter, HEK293T cells with the receptor: Emax (fold induction) of 35. Further, in assay [2], the CRE-luc reporter, HEK293T cells with the receptor: EC50 was 120 nM and the CRE-luc reporter, HEK293T cells with the receptor: Emax (fold induction) was found to be 6.24.
Taken in the same sequence, the figures for Human GCG (peptide) were 49.4 nM, 32.7, 35.3 nM and 6.3.

These data come from paper PMC3679108, “A Novel Glucagon-Related Peptide (GCRP) and Its Receptor GCRPR Account for Coevolution of Their Family Members in Vertebrates” (PLoS ONE, 2013).
